The labels stand for the following.
B1: FAM115A (protein, UniProt Q9Y4C2 1-921, looked up)
TRPM8 channel-associated …: MATPSAAFEALMNGVTSWDVPEDAVPCELLLIGEASFPVMVNDMGQVLIAASSYGRGRLVVVSHEDYLVEAQLTPFLLNAVGWLCSSPGAPIGVHPSLAPLAKILEGSGVDAKVEPEVKDSLGVYCIDAYNETMTEKLVKFMKCGGGLLIGGQAWDWANQGEDERVLFTFPGNLVTSVAGIYFTDNKGDTSFFKVSKKMPKIPVLVSCEDDLSDDREELLHGISELDISNSDCFPSQLLVHGALAFPLGLDSYHGCVIAAARYGRGRVVVTGHKVLFTVGKLGPFLLNAVRWLDGGRRGKVVVQTELRTLSGLLAVGGIDTSIEPNLTSDASVYCFEPVSEVGVKELQEFVAEGGGLFVGAQAWWWAFKNPGVSPLARFPGNLLLNPFGISITSQSLNPGPFRTPKAGIRTYHFRSTLAEFQVIMGRKRGNVEKGWLAKLGPDGAAFLQIPAEEIPAYMSVHRLLRKLLSRYRLPVATRENPVINDCCRGAMLSLATGLAHSGSDLSLLVPEIEDMYSSPYLRPSESPITVEVNCTNPGTRYCWMSTGLYIPGRQIIEVSLPEAAASADLKIQIGCHTDDLTRASKLFRGPLVINRCCLDKPTKSITCLWGGLLYIIVPQNSKLGSVPVTVKGAVHAPYYKLGETTLEEWKRRIQENPGPWGELATDNIILTVPTANLRTLENPEPLLRLWDEVMQAVARLGAEPFPLRLPQRIVADVQISVGWMHAGYPIMCHLESVQELINEKLIRTKGLWGPVHELGRNQQRQEWEFPPHTTEATCNLWCVYVHETVLGIPRSRANIALWPPVREKRVRIYLSKGPNVKNWNAWTALETYLQLQEAFGWEPFIRLFTEYRNQTNLPTENVDKMNLWVKMFSHQVQKNLAPFFEAWAWPIQKEVATSLAYLPEWKENIMKLYLLTQMPH
B2: SUPV3L1 (protein, UniProt Q8IYB8 23-786, looked up)
ATP-dependent RNA helicase …: AICSALRPHFGPFPGVLGQVSVLATASSSASGGSKIPNTSLFVPLTVKPQGPSADGDVGAELTRPLDKNEVKKVLDKFYKRKEIQKLGADYGLDARLFHQAFISFRNYIMQSHSLDVDIHIVLNDICFGAAHADDLFPFFLRHAKQIFPVLDCKDDLRKISDLRIPPNWYPDARAMQRKIIFHSGPTNSGKTYHAIQKYFSAKSGVYCGPLKLLAHEIFEKSNAAGVPCDLVTGEERVTVQPNGKQASHVSCTVEMCSVTTPYEVAVIDEIQMIRDPARGWAWTRALLGLCAEEVHLCGEPAAIDLVMELMYTTGEEVEVRDYKRLTPISVLDHALESLDNLRPGDCIVCFSKNDIYSVSRQIEIRGLESAVIYGSLPPGTKLAQAKKFNDPNDPCKILVATDAIGMGLNLSIRRIIFYSLIKPSINEKGERELEPITTSQALQIAGRAGRFSSRFKEGEVTTMNHEDLSLLKEILKRPVDPIRAAGLHPTAEQIEMFAYHLPDATLSNLIDIFVDFSQVDGQYFVCNMDDFKFSAELIQHIPLSLRVRYVFCTAPINKKQPFVCSSLLQFARQYSRNEPLTFAWLRRYIKWPLLPPKNIKDLMDLEAVHDVLDLYLWLSYRFMDMFPDASLIRDLQKELDGIIQDGVHNITKLIKMSETHKLLNLEGFPSGSQSRLSGTLKSQARRTRGTKALGSKATEPPSPDAGELSLASRLVQQGLLTPDMLKQLEKEWMTQQTEHNKEKTESGTHPKGTRRKKKEPDSD
B3: FAM120A (protein, UniProt Q9NZB2 1-1118, looked up)
Constitutive coactivator of …: MGVQGFQDYIEKHCPSAVVPVELQKLARGSLVGGGRQRPPQTPLRLLVDADNCLHRLYGGFYTDWVSGGQWNHMLGYLAALAKACFGGNIELFVFFNGALEKARLHEWVKRQGNERQTAQQIVSHVQNKGTPPPKVWFLPPVCMAHCIRLALIRFHVKVAQSIEDHHQEVIGFCRENGFHGLVAYDSDYALCNIPYYFSAHALKLSRNGKSLTTSQYLMHEVAKQLDLNPNRFPIFAALLGNHILPDEDLASFHWSLLGPEHPLASLKVRAHQLVLPPCDVVIKAVADYVRNIQDTSDLDAIAKDVFQHSQSRTDDKVIRFKRAIGYYSATSKPMSFHPPHYLAARPGPFGMPGMVPPHVPPQMLNIPQTSLQAKPVAPQVPSPGGAPGQGPYPYSLSEPAPLTLDTSGKNLTEQNSYSNIPHEGKHTPLYERSSPINPAQSGSPNHVDSAYFPGSSTSSSSDNDEGSGGATNHISGNKIGWEKTGSHSEPQARGDPGDQTKAEGSSTASSGSQLAEGKGSQMGTVQPIPCLLSMPTRNHMDITTPPLPPVAPEVLRVAEHRHKKGLMYPYIFHVLTKGEIKIAVSIEDEANKDLPPAALLYRPVRQYVYGVLFSLAESRKKTERLAFRKNRLPPEFSPVIIKEWAAYKGKSPQTPELVEALAFREWTCPNLKRLWLGKAVEDKNRRMRAFLACMRSDTPAMLNPANVPTHLMVLCCVLRYMVQWPGARILRRQELDAFLAQALSPKLYEPDQLQELKIENLDPRGIQLSALFMSGVDMALFANDACGQPIPWEHCCPWMYFDGKLFQSKLLKASREKTPLIDLCDGQADQAAKVEKMRQSVLEGLSFSRQSHTLPFPPPPALPFYPASAYPRHFGPVPPSQGRGRGFAGVCGFGGPYGETVATGPYRAFRVAAASGHCGAFSGSDSSRTSKSQGGVQPIPSQGGKLEIAGTVVGHWAGSRRGRGGRGPFPLQVVSVGGPARGRPRGVISTPVIRTFGRGGRYYGRGYKNQAAIQGRPPYAASAEEVAKELKSKSGESKSSAMSSDGSLAENGVMAEEKPAPQMNGSTGDARAPSHSESALNNDSKTCNTNPHLNALSTDSACRREAALEAAVLNKEE
B4: NAT10 (protein, UniProt Q9H0A0 1-1025, looked up)
RNA cytidine acetyltransferase: MHRKKVDNRIRILIENGVAERQRSLFVVVGDRGKDQVVILHHMLSKATVKARPSVLWCYKKELGFSSHRKKRMRQLQKKIKNGTLNIKQDDPFELFIAATNIRYCYYNETHKILGNTFGMCVLQDFEALTPNLLARTVETVEGGGLVVILLRTMNSLKQLYTVTMDVHSRYRTEAHQDVVGRFNERFILSLASCKKCLVIDDQLNILPISSHVATMEALPPQTPDESLGPSDLELRELKESLQDTQPVGVLVDCCKTLDQAKAVLKFIEGISEKTLRSTVALTAARGRGKSAALGLAIAGAVAFGYSNIFVTSPSPDNLHTLFEFVFKGFDALQYQEHLDYEIIQSLNPEFNKAVIRVNVFREHRQTIQYIHPADAVKLGQAELVVIDEAAAIPLPLVKSLLGPYLVFMASTINGYEGTGRSLSLKLIQQLRQQSAQSQVSTTAENKTTTTARLASARTLYEVSLQESIRYAPGDAVEKWLNDLLCLDCLNITRIVSGCPLPEACELYYVNRDTLFCYHKASEVFLQRLMALYVASHYKNSPNDLQMLSDAPAHHLFCLLPPVPPTQNALPEVLAVIQVCLEGEISRQSILNSLSRGKKASGDLIPWTVSEQFQDPDFGGLSGGRVVRIAVHPDYQGMGYGSRALQLLQMYYEGRFPCLEEKVLETPQEIHTVSSEAVSLLEEVITPRKDLPPLLLKLNERPAERLDYLGVSYGLTPRLLKFWKRAGFVPVYLRQTPNDLTGEHSCIMLKTLTDEDEADQGGWLAAFWKDFRRRFLALLSYQFSTFSPSLALNIIQNRNMGKPAQPALSREELEALFLPYDLKRLEMYSRNMVDYHLIMDMIPAISRIYFLNQLGDLALSAAQSALLLGIGLQHKSVDQLEKEIELPSGQLMGLFNRIIRKVVKLFNEVQEKAIEEQMVAAKDVVMEPTMKTLSDDLDEAAKEFQEKHKKEVGKLKSMDLSEYIIRGDDEEWNEVLNKAGPNASIISLKSDKKRKLEAKQEPKQSKKLKNRETKNKKDMKLKRKK
B5: TRIPI3 (protein, UniProt Q15645 1-432, looked up)
Pachytene checkpoint protein …: MDEAVGDLKQALPCVAESPTVHVEVHQRGSSTAKKEDINLSVRKLLNRHNIVFGDYTWTEFDEPFLTRNVQSVSIIDTELKVKDSQPIDLSACTVALHIFQLNEDGPSSENLEEETENIIAANHWVLPAAEFHGLWDSLVYDVEVKSHLLDYVMTTLLFSDKNVNSNLITWNRVVLLHGPPGTGKTSLCKALAQKLTIRLSSRYRYGQLIEINSHSLFSKWFSESGKLVTKMFQKIQDLIDDKDALVFVLIDEVESLTAARNACRAGTEPSDAIRVVNAVLTQIDQIKRHSNVVILTTSNITEKIDVAFVDRADIKQYIGPPSAAAIFKIYLSCLEELMKCQIIYPRQQLLTLRELEMIGFIENNVSKLSLLLNDISRKSEGLSGRVLRKLPFLAHALYVQAPTVTIEGFLQALSLAVDKQFEERKKLAAYI

In the first assay the test system is Hsp90 complexes in K562 cell extract. Put plainly: Nano-LC-MS/MS of PU-beads pull-downs. The conditions noted are these: protein identified in PU-beads pull-down of K562 cell extract, Prep 1; QSTAR-Elite QTof MS. It counts as binding. The procedure:
Protein cargo isolated from cell lysate with PU-beads or control-beads was subjected to proteomic analysis by nano liquid chromatography coupled to tandem mass spectrometry (nano LC-MS/MS). Initial protein identification was performed using the Mascot search engine, and was further evaluated using Scaffold Proteome Software (Tables 5a-d).
(§1) Lysates prepared as mentioned above were first pre-cleaned by incubation with control beads overnight at 4° C. […] Beads were washed with lysis buffer, proteins eluted by boiling in 2% SDS, separated on a denaturing gel and Coomassie stained according to manufacturer's procedure (Biorad). […] Analyses of the batch purified pools were done using a QSTAR-Elite hybrid quadrupole time-of-flight mass spectrometer (QTof MS) (AB/MDS Sciex), equipped with a nano spray ion source. Peptide mixtures (in 20 μL) are loaded onto a trapping guard column (0.3×5-mm PepMap C18 100 cartridge from LC Packings) using an Eksigent nano MDLC system (Eksigent Technologies, Inc) at a flow rate of 20 μL/min. […] Electrospray ionization (ESI) needle voltage was set at about 1800 V. The mass analyzer is operated in automatic, data-dependent MS/MS acquisition mode, with the threshold set to 10 counts per second of doubly or triply charged precursor ions selected for fragmentation scans. Survey scans of 0.25 sec are recorded from 400 to 1800 amu; up to 3 MS/MS scans are then collected sequentially for the selected precursor ions, recording from 100 to 1800 amu. The collision energy is automatically adjusted in accordance with the m/z value of the precursor ions selected for MS/MS. Selected precursor ions are excluded from repeated selection for 60 sec after the end of the corresponding fragmentation duty cycle. […] One missed tryptic cleavage site was allowed, precursor ion mass tolerance=0.4 Da fragment ion mass tolerance=0.4 Da, protein modifications were allowed for Met-oxide, Cys-acrylamide and N-terminal acetylation. MudPit scoring was typically applied with ‘require bold red’ activated, and using significance threshold score p<0.05. Unique peptide counts (or ‘spectral counts’) and percent sequence coverages for all identified proteins were exported to Scaffold Proteome Software (version 2_06_01, www.proteomesoftware.com) for further bioinformatic analysis (Table 5a). Using output from Mascot, Scaffold validates, organizes, and interprets mass spectrometry data, allowing more easily to manage large amounts of data, to compare samples, and to search for protein modifications.
As to B1, the “Number of Assigned Spectra, K562 Prep 1” value turned out to be 9.
Still for that read-out and setting: as for B2, the figure is 8.
Same read-out and setting: for B3 the value was 1; for B4, 8.
Same read-out and setting: as for B5, the figure is 3.

Still in this assay, the particulars now being: protein identified in PU-beads pull-down of K562 cell extract, Prep 2; QSTAR-Elite QTof MS.
In the case of B1, the “Number of Assigned Spectra, K562 Prep 2” value was determined as 1.
On to B2, for which the “Number of Assigned Spectra, K562 Prep 2” value came to 3.
Take B3: the “Number of Assigned Spectra, K562 Prep 2” value worked out at 1.
For the molecule B4, the “Number of Assigned Spectra, K562 Prep 2” value is given as 3.
The same measure, in the same setting: for B5 the value was 3.

Another assay deals with Hsp90 complexes in Mia-PaCa-2 cell extract. Put plainly: Nano-LC-MS/MS of PU-beads pull-downs. The following applies: protein identified in PU-beads pull-down of Mia-PaCa-2 cell extract; QSTAR-Elite QTof MS. It counts as binding, human. The protocol:
as §1
As for B1, the “Number of Assigned Spectra, Mia-Paca 2” value is 0.
As for B2, the “Number of Assigned Spectra, Mia-Paca 2” value was determined as 0.
On the same count and under the same terms, as for B3, the figure is 12; as for B4, 1; as for B5, 8.

Values taken from patent publication US20220074941A1, “HSP90 COMBINATION THERAPY” (Sloan-Kettering Institute for Cancer Research, priority 2011, published 2022).
